Data on 13 molecules can be found in patent publication US12139520B2 (priority 2020, dated 2024).

For one assay, the target named is hAM1R (human, UniProt Q16602). Description: cell-based or functional assay.
Another assay addresses T1, hAMY3R (human, UniProt P30988).
T1 sequence 1: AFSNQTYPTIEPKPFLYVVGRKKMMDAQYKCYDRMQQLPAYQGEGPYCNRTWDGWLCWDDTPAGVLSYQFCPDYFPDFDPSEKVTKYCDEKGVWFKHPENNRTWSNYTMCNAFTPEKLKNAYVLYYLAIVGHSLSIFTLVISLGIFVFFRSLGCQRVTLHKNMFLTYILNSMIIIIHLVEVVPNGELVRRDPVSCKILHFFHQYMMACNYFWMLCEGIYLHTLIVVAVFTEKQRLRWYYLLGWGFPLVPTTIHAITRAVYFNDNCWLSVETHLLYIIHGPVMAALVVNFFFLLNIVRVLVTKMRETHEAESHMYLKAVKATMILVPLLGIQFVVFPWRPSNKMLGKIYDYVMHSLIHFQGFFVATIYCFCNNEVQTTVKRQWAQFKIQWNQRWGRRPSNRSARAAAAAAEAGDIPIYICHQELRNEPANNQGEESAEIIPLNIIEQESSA
T1 sequence 2: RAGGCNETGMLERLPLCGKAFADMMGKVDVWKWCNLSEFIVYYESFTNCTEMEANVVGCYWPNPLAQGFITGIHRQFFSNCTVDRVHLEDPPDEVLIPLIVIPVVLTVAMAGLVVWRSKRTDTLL
The assay is described as follows: cell-based or functional assay.

Bridge positions count the residues as written; N and C are the ends. Square brackets hold non-standard residues; d marks the D form. Ends that are not written are not given here. Hyp = O=C(O)[C@@H]1C[C@@H](O)CN1

Take RCQTSTCTVARLAEQIAQYTDKDKDQVAPPTNVGSNS[Hyp]-NH2 (disulfide 2-7 (inferred); ends not checked) [SEQ ID NO: 32]: the “hAM1R EC50 (cAMP)” value in the assay with hAM1R was more than 5 µM. For the same molecule, in the assay with hAMY3R, the “hAMY3R EC50 (cAMP)” value is 8 pM.

Consider KCNTATCTVQWLAHQIYQFTKDKDNVAPPTNVGSNG[Hyp]-NH2 (disulfide 2-7 (inferred); ends not checked) [SEQ ID NO: 317], for which the “hAM1R EC50 (cAMP)” value with hAM1R is more than 5 µM. For the same molecule, the “hAMY3R EC50 (cAMP)” value in the assay with hAMY3R turned out to be 4 pM.

With KCNTATCTVQWLAHQIYQFTDKDKDNVAPATNVGSNG[Hyp]-NH2 (disulfide 2-7 (inferred); ends not checked) [SEQ ID NO: 316], the “hAM1R EC50 (cAMP)” value in the assay with hAM1R is more than 5 µM. The “hAMY3R EC50 (cAMP)” value with hAMY3R was 12 pM.

Turning to KCNTATCTVQWLAEQIYQFTDKDKDNVAPPYNEGSNG[Hyp]-NH2 (disulfide 2-7 (inferred); ends not checked) [SEQ ID NO: 321], the “hAM1R EC50 (cAMP)” value with hAM1R is more than 5 µM. For the same molecule, the “hAMY3R EC50 (cAMP)” value with hAMY3R amounted to 317 pM.

Regarding GCRFGTCTVQWLANFLYQFTDKDKDNVAPRTNVGPQGY [SEQ ID NO: 311], the “hAM1R EC50 (cAMP)” value with hAM1R is more than 5 µM. In the assay with hAMY3R, the “hAMY3R EC50 (cAMP)” value is 60 pM.

On to KCNTATCTVQWLAHQIYQFTDKDKANVAPPTNVGSNG[Hyp]-NH2 (disulfide 2-7 (inferred); ends not checked) [SEQ ID NO: 314], for which, in the assay with hAM1R, the “hAM1R EC50 (cAMP)” value is more than 5 µM. Besides, the “hAMY3R EC50 (cAMP)” value with hAMY3R was determined as 8 pM.

Take KCNTATCTVQWLAHQIYQFTDKDKDNVPPTNVGSNG[Hyp]-NH2 (disulfide 2-7 (inferred); ends not checked) [SEQ ID NO: 318]: the “hAM1R EC50 (cAMP)” value with hAM1R was more than 5 µM. Also, the “hAMY3R EC50 (cAMP)” value with hAMY3R was 9 pM.

For KCNTATCTVQWLAHQIYQFTDKDKDNVAPRTKVGSNG[Hyp]-NH2 (disulfide 2-7 (inferred); ends not checked) [SEQ ID NO: 312], the “hAM1R EC50 (cAMP)” value with hAM1R is more than 5 µM. In the assay with hAMY3R, the “hAMY3R EC50 (cAMP)” value was determined as 12 pM.

KCNTATCTVQWLAHQIYQFTDKDKDNAAPPTNVGSNG[Hyp]-NH2 (disulfide 2-7 (inferred); ends not checked) [SEQ ID NO: 315]: in the assay with hAM1R, the “hAM1R EC50 (cAMP)” value is more than 5 µM. For the same molecule, the “hAMY3R EC50 (cAMP)” value in the assay with hAMY3R came to 12 pM.

Take KCNTATCTVQWLAHQIYQFADKDKDNVAPPTNVGSNG[Hyp]-NH2 (disulfide 2-7 (inferred); ends not checked) [SEQ ID NO: 313]: in the assay with hAM1R, the “hAM1R EC50 (cAMP)” value was more than 5 µM. Moreover, the “hAMY3R EC50 (cAMP)” value in the assay with hAMY3R was found to be 4 pM.

With KCNTSTCTVAWLADQITQFSDKDKANVSPPTEVGPNS[Hyp]-NH2 (disulfide 2-7 (inferred); ends not checked) [SEQ ID NO: 310], in the assay with hAM1R, the “hAM1R EC50 (cAMP)” value was more than 5 µM. Also, the “hAMY3R EC50 (cAMP)” value in the assay with hAMY3R worked out at 3 pM.

With KCNTATCTVQWLAHQIYQFTDKDKDNVAPTNVGSNG[Hyp]-NH2 (disulfide 2-7 (inferred); ends not checked) [SEQ ID NO: 319], the “hAM1R EC50 (cAMP)” value with hAM1R is more than 5 µM. Besides, the “hAMY3R EC50 (cAMP)” value with hAMY3R amounted to 18 pM.

As for KCNTATCTVQWLAHQIYQFTDKAKDNVAPPTNVGSNG[Hyp]-NH2 (disulfide 2-7 (inferred); ends not checked) [SEQ ID NO: 320], the “hAM1R EC50 (cAMP)” value with hAM1R is more than 5 µM. Moreover, the “hAMY3R EC50 (cAMP)” value in the assay with hAMY3R is 9 pM.
